Measurements reported in the supplement of paper PMC7877785.
± gives the uncertainty stated by the source.

Test: self-splicing fitness, log relative to wild type (ln ratio); higher = more splicing; Tetrahymena group I intron in knt gene, E. coli kanamycin selection, DiMSum; sequences stand for … in CUCUCU…GGAGGGAAAAGUUAUCAGGCAUGCACCUGGUAGCUAGUCUUUAAACCAAUAGAUUGCAUCGGUUUAAAAGGCAAGACCGUCAAAUUGCGGGAAAGGGGUCAACAGCCGUUCAGUACCAAGUCUCAGGGGAAACUUUGAGAUGGCCUUGCAAAGGGUAUGGUAAUAAGCUGACGGACAUGGUCCUAACCACGCAGCCAAGUCCUAAGUCAACAGAUCUUCUGUUGAUAUGGAUGCAGUUCACAGACUAAAUGUCGGUCGGGGAAGAUGUAUUCUUCUCAUAAGAUAUAGUCGGACCUCUCCUUAAUGGGAGCUAGCGGAUGAAGUGAUGCAACACUGGAGCCGCUGGGAACUAAUUUGUAUGCGAAAGUAUAUUGAUUAGUUUUGGAGUACUCGUGGUCG
In short: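 Library with all eight P1ex-region intron nucleotides randomised, intron inside the knt kanamycin-resistance gene on pET-22b(+), in E. coli BL21(DE3). Cells grew overnight at 37°C or 30°C on LB agar with or without 25 μg/mL kanamycin (plus 100 μg/mL carbenicillin, 50 μM IPTG, 0.2% rhamnose), in six replicate transformations. Pooled colonies were amplicon-sequenced on Illumina HiSeq 2500. DiMSum fitness is the error-weighted combination of wild-type-normalised replicate fold changes, kanamycin versus none.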

Sequence	self-splicing fitness (ln) (30 °C)	self-splicing fitness (ln) (37 °C)
GUUGAGCAAUAUUACGAUGU	-2.43 ± 0.21	-1.03 ± 0.18
GUUGAGCAAUAUUACGGACG		-1.42 ± 0.29
GUUGAGCAAUAUUACGGAUA	-0.148 ± 0.24	-1.65 ± 0.45
GUUGAGCAAUAUUACGGCUU	-2.84 ± 0.28	-1.25 ± 0.37
GUUGAGCAAUAUUACGGGUU	-3.57 ± 0.27	-2 ± 0.21
GUUGAGCAAUAUUACGGUGG	-2.81 ± 0.33	-2.81 ± 0.48
GUUGAGCAAUAUUACGUCUG	-2.34 ± 0.44	-2.04 ± 0.4
GUUGAGCAAUAUUACGUUAG	-4.58 ± 0.41	-2.82 ± 0.43
GUUGAGCAAUAUUACGUUGA	-3.13 ± 0.29	-2.9 ± 0.33
GUUUAGCAAUAUUACGAAUA	-1.58 ± 0.43	-0.203 ± 0.3
GUUUAGCAAUAUUACGACAU	-0.224 ± 0.014	0.063 ± 0.033
GUUUAGCAAUAUUACGCAGU	-2.92 ± 0.17	-2.05 ± 0.22
GUUUAGCAAUAUUACGCGAU	-3.12 ± 0.4	-2.42 ± 0.42
GUUUAGCAAUAUUACGCGCU	-1.52 ± 0.29	-0.397 ± 0.44
GUUUAGCAAUAUUACGCGUA	-0.947 ± 0.14	-0.606 ± 0.15
GUUUAGCAAUAUUACGGUAU	-2.05 ± 0.14	0.286 ± 0.15
GUUUAGCAAUAUUACGGUCU	-1.44 ± 0.12	-1.05 ± 0.13
GUUUAGCAAUAUUACGGUGU	-1.95 ± 0.14	-1.38 ± 0.13
GUUUAGCAAUAUUACGUAAU	-1.15 ± 0.1	0.127 ± 0.13
GUUUAGCAAUAUUACGUGAG	-0.583 ± 0.062	-0.124 ± 0.08
GUUUAGCAAUAUUACGUGCG	-0.649 ± 0.11	-0.5 ± 0.11
GUUUAGCAAUAUUACGUGUC	-0.806 ± 0.17	-1.76 ± 0.17
GUUUAGCAAUAUUACGUUCA	-0.239 ± 0.15	-0.156 ± 0.13
UAAAAGCAAUAUUACGAAGG	-2.61 ± 0.21	-1.6 ± 0.23
UAAAAGCAAUAUUACGACAG	-0.555 ± 0.057	-0.173 ± 0.074

Sequence	self-splicing fitness (ln) (30 °C)	self-splicing fitness (ln) (37 °C)
UAAAAGCAAUAUUACGAGAA	-2.18 ± 0.24	-0.995 ± 0.16
UAAAAGCAAUAUUACGAGAG	-3.35 ± 0.19	-1.6 ± 0.13
UAAAAGCAAUAUUACGAGUU	-2.99 ± 0.16	-1.91 ± 0.14
UAAAAGCAAUAUUACGAUGA	-0.245 ± 0.085	0.0881 ± 0.087
UAAAAGCAAUAUUACGAUGG	-0.953 ± 0.087	-0.592 ± 0.11
UAAAAGCAAUAUUACGCACC	-2.48 ± 0.11	-1.49 ± 0.12
UAAAAGCAAUAUUACGCACG	-0.983 ± 0.079	-0.0988 ± 0.1
UAAAAGCAAUAUUACGCAGA	-2.11 ± 0.093	-1.17 ± 0.086
UAAAAGCAAUAUUACGCGUG	-0.88 ± 0.049	-0.0179 ± 0.066
UAAAAGCAAUAUUACGCUAA	-1.86 ± 0.14	-0.863 ± 0.13
UAAAAGCAAUAUUACGCUAC	-3.07 ± 0.24	
UAAAAGCAAUAUUACGGACA	-0.712 ± 0.082	0.302 ± 0.11
UAAAAGCAAUAUUACGGCCU	-0.961 ± 0.1	-0.4 ± 0.12
UAAAAGCAAUAUUACGGGAC	-3.16 ± 0.13	-2.47 ± 0.19
UAAAAGCAAUAUUACGGGUA	-0.918 ± 0.09	-0.192 ± 0.095
UAAAAGCAAUAUUACGGUAC	-3.76 ± 0.16	-1.42 ± 0.16
UAAAAGCAAUAUUACGGUAU	-3.74 ± 0.23	-1.85 ± 0.21
UAAAAGCAAUAUUACGUACA	-1.05 ± 0.1	-0.00957 ± 0.14
UAAAAGCAAUAUUACGUUUU	-3.26 ± 0.13	-2.82 ± 0.16
UAACAGCAAUAUUACGAAGA	-2.48 ± 0.14	-1.33 ± 0.11
UAACAGCAAUAUUACGACAG	-0.741 ± 0.052	-0.435 ± 0.073
UAACAGCAAUAUUACGACUG	-0.343 ± 0.077	0.429 ± 0.099
UAACAGCAAUAUUACGAGAC	-4.18 ± 0.26	-2.78 ± 0.29
UAACAGCAAUAUUACGCACA	-0.339 ± 0.069	0.114 ± 0.099
UAACAGCAAUAUUACGCACG	-1.17 ± 0.058	-0.421 ± 0.072

Sequence	self-splicing fitness (ln) (30 °C)	self-splicing fitness (ln) (37 °C)
UAACAGCAAUAUUACGCGGA	-2.12 ± 0.11	0.0542 ± 0.076
UAACAGCAAUAUUACGCGUG	-0.718 ± 0.041	0.173 ± 0.055
UAACAGCAAUAUUACGGCCU	-1.21 ± 0.13	-0.33 ± 0.15
UAACAGCAAUAUUACGGGCC	-3.47 ± 0.26	-2.98 ± 0.26
UAACAGCAAUAUUACGGGGU	-4.16 ± 0.14	-2.2 ± 0.12
UAACAGCAAUAUUACGGGUU	-3.91 ± 0.15	-3.58 ± 0.19
UAACAGCAAUAUUACGGUUA	-1.59 ± 0.1	-0.652 ± 0.096
UAACAGCAAUAUUACGUAUA	-1.4 ± 0.062	-0.86 ± 0.069
UAACAGCAAUAUUACGUCGU	-3.43 ± 0.14	-2.04 ± 0.12
UAACAGCAAUAUUACGUGCA	-0.792 ± 0.063	-0.445 ± 0.098
UAACAGCAAUAUUACGUGGC	-4.59 ± 0.29	-2.56 ± 0.23
UAACAGCAAUAUUACGUGGG	-4.35 ± 0.15	-2.75 ± 0.091
UAACAGCAAUAUUACGUUGC		-2.84 ± 0.25
UAAGAGCAAUAUUACGAAAA		-2.26 ± 0.38
UAAGAGCAAUAUUACGAACA	-2.71 ± 0.42	-1.26 ± 0.27
UAAGAGCAAUAUUACGAAUU	-3.74 ± 0.43	-1.84 ± 0.49
UAAGAGCAAUAUUACGCCGU		-2.26 ± 0.43
UAAGAGCAAUAUUACGCGAA	-2.74 ± 0.22	-1.6 ± 0.16
UAAGAGCAAUAUUACGCGAU	-3.86 ± 0.26	-2.56 ± 0.24
UAAGAGCAAUAUUACGCGGG	-3.49 ± 0.37	-3.91 ± 0.36
UAAGAGCAAUAUUACGGAAU	-3.52 ± 0.41	-2.14 ± 0.41
UAAGAGCAAUAUUACGGACU		-2.75 ± 0.41
UAAGAGCAAUAUUACGGCAC		-1.16 ± 0.48
UAAGAGCAAUAUUACGGCUA	-1.03 ± 0.1	-0.141 ± 0.11
UAAGAGCAAUAUUACGGGCA	-2.73 ± 0.26	-1.99 ± 0.24

Sequence	self-splicing fitness (ln) (30 °C)	self-splicing fitness (ln) (37 °C)
UAAGAGCAAUAUUACGGGCC	-2.08 ± 0.32	-0.897 ± 0.3
UAAGAGCAAUAUUACGGGCG	-2.73 ± 0.16	-2.29 ± 0.19
UAAGAGCAAUAUUACGGUUG	-3.21 ± 0.2	-1.87 ± 0.18
UAAGAGCAAUAUUACGUGGA	-2.84 ± 0.28	-2.14 ± 0.3
UAAGAGCAAUAUUACGUGUG	-2.99 ± 0.18	-1.4 ± 0.14
UAAGAGCAAUAUUACGUUCG	-1.48 ± 0.11	-0.784 ± 0.14
UAAGAGCAAUAUUACGUUCU	-3.45 ± 0.28	-1.55 ± 0.19
UAAUAGCAAUAUUACGAAUC	-4.21 ± 0.31	-2.34 ± 0.39
UAAUAGCAAUAUUACGACGG	-1.51 ± 0.11	-0.463 ± 0.13
UAAUAGCAAUAUUACGAGAG		-2.68 ± 0.3
UAAUAGCAAUAUUACGAGUG	-1.11 ± 0.08	-0.572 ± 0.09
UAAUAGCAAUAUUACGCACA	-0.694 ± 0.14	-0.0269 ± 0.15
UAAUAGCAAUAUUACGCAGU	-3.55 ± 0.37	-2.1 ± 0.34
UAAUAGCAAUAUUACGCCCU	-1.59 ± 0.4	-0.36 ± 0.38
UAAUAGCAAUAUUACGCGCG	-0.452 ± 0.11	-0.333 ± 0.14
UAAUAGCAAUAUUACGCGGC	-2.97 ± 0.36	-2.34 ± 0.37
UAAUAGCAAUAUUACGCGUA	-1.85 ± 0.14	-0.713 ± 0.12
UAAUAGCAAUAUUACGCUAU	-2.93 ± 0.19	-1.85 ± 0.21
UAAUAGCAAUAUUACGCUGG	-1.95 ± 0.14	-1.85 ± 0.16
UAAUAGCAAUAUUACGCUGU	-3.69 ± 0.28	-0.659 ± 0.17
UAAUAGCAAUAUUACGGCAC	-2.86 ± 0.22	-1.48 ± 0.19
UAAUAGCAAUAUUACGGUGC		-1.98 ± 0.36
UAAUAGCAAUAUUACGUAAA	-3.19 ± 0.2	-1.88 ± 0.19
